In one data set the target is T1, OBF1, MBP fusion (Zea mays, UniProt P24068 1-151).
T1 sequence: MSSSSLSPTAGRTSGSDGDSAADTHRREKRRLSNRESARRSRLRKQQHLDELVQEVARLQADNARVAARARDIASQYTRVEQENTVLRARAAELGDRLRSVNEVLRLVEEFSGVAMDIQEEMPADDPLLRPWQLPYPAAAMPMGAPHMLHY
Nature of the data set: EMSA; poly(dI-dC), 5 mM MgCl2; EMSA: 10 mM Tris pH 7.5, 50 mM KCl, 1 mM DTT, 5 mM MgCl2, 2.5% glycerol, poly(dI-dC), 0.05% NP-40; 20-40 ng protein, probe 10 fM (so in the source); room temperature. The conditions noted are these: protein: recombinant; tags: N-MBP (pMAL-c2x); chain copies: 2; label: 5'-biotin; blunt. (In general: A gel shift assay detects complexes by their altered migration in electrophoresis.)

The target of a further data set is T2, OBF4, MBP fusion (Zea mays, UniProt B4FFB3 1-396).
T2 sequence: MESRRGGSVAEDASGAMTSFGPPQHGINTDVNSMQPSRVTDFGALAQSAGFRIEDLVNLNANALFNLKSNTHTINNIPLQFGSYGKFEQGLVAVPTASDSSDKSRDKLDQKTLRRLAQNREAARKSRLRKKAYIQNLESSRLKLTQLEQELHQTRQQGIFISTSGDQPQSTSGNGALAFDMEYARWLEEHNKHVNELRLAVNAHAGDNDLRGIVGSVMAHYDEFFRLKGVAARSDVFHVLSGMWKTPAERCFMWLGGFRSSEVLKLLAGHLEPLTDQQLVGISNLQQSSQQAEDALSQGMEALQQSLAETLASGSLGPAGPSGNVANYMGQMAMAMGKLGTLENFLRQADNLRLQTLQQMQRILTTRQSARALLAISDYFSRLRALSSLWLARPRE
The description is as above. The conditions noted are these: protein: recombinant; tags: N-MBP (pMAL-c2x); chain copies: 2; label: 5'-biotin; blunt.

B1: 3xE1 probe (3E1X) (dsDNA)
DNA 1: ACATGGCACGACACGTAGTGAACCACATGGCACGACACGTAGTGAACCACATGGCACGACACGTAGTGAACC
DNA 2: GGTTCACTACGTGTCGTGCCATGTGGTTCACTACGTGTCGTGCCATGTGGTTCACTACGTGTCGTGCCATGT
On to B1, for which the binding result with OBF1, MBP fusion is “binds”; with OBF4, MBP fusion, “binds”.

Source of the values: publication PMC7202667, “UNBRANCHED3 Expression and Inflorescence Development is Mediated by UNBRANCHED2 and the Distal Enhancer, KRN4, in Maize”.
